Data taken from the RNAGym collection of RNA variant scans (doi:10.1021/acssynbio.7b00057).

B1: Pistol ribozyme (parent)
chain: GGGUCGUUGUUCCAUAAUCGCGUGGAUAUGGCACGCAAGUUUCUACCGGGCACCGUAAAUGUCCGACUGGAGCCGUUCGGGCGGCUAUAAACAGACCUCAGGCCCGAAGCGUGGCGGCACCUGCCGCCGGUGGUAAAAAAGAUCGGAAGAGCACACGUCU

Variants of: B1
Assay: aptazyme ON/OFF ratio, guanine; higher = stronger switching; co-transcriptional cleavage with and without guanine

Variant | aptazyme ON/OFF ratio
U7C U8G G9C U10G U11C C12G C13G | 1.22
U7C U8G G9C U11G C12U C13U | 1.37
U7C U8G G9C U11G C12U C13G | 1.21
U7C U8G G9C U11G C12U C13A | 1.2
U7C U8G G9C U11C C12G | 1.67
U7C U8G G9C U11C C12U | 1.33
U7C U8G G9C U11C C12A | 2.71
U7C U8G G9C U10C U11C C12A C13G | 1.04
U7C U8G G9C U10C U11C C12A C13U | 1.02
U7C U8G G9C U10C U11C C12A C13A | 1.03
U7C U8G G9C U10C C12A C13G | 1.1
U7C U8G G9C U10C C12A C13A | 1.06
U7C U8G G9C U10C C12A C13U | 1.06
U7C U8G G9C U11A C12A C13G | 1.11
U7C U8G G9C U11A C12A C13U | 1.22
U7C U8G G9C U11A C12A C13A | 1.15
U7C U8G G9U U10A U11A C12U C13G | 1.08
U7C U8G G9U U10A U11A C12U C13U | 1.25
U7C U8G G9U U10A U11A C12U C13A | 1.22
U7C U8G G9U C12G C13G | 1.25
U7C U8G G9U C12G C13A | 1.17
U7C U8G G9U C12G C13U | 1.28
U7C U8G G9C U10G C12G C13A | 1.18
U7C U8G G9C U10G C12G C13U | 1.13

Variant | aptazyme ON/OFF ratio
U7C U8G G9C U10G C12G C13G | 1.12
U7C U8G G9C U10G U11C C12U C13A | 1.26
U7C U8G G9C U10G U11C C12U C13G | 1.25
U7C U8G G9C U10G U11C C12U C13U | 1.21
U7C U8G G9C U11G C13U | 1.15
U7C U8G G9C U11G C13G | 1.03
U7C U8G G9C U11G C13A | 1.18
U7C U8G G9C U10G U11A C12G C13U | 1.24
U7C U8G G9C U10G U11A C12G C13G | 1.21
U7C U8G G9C U10G U11A C12G C13A | 1.24
U7C U8G G9C U10G U11A C12G | 1.24
U7C U8G G9C U10G U11A C12U | 1.24
U7C U8G G9C U10G U11A C12A | 1.34
U7C U8G G9C U10A U11A C13G | 1.08
U7C U8G G9C U10A U11A C13U | 1.2
U7C U8G G9U U10A C13A | 1.14
U7C U8G G9U U10A C13G | 1.08
U7C U8G G9U U10A C13U | 1.1
U7C U8G G9C U10G U11A C12A C13G | 1.21
U7C U8G G9C U10G U11A C12A C13A | 1.31
U7C U8G G9C U10G U11A C12A C13U | 1.23
U7C U8G G9C U10A U11C C12G | 1.15
U7C U8G G9C U10A U11C C12A | 1.19
U7C U8G G9C U10A U11C C12U | 1.05

Variant | aptazyme ON/OFF ratio
U7C U8G G9U U10A | 1.12
U7C U8G G9U U10C | 2.72
U7C U8G G9U U10A U11A C12G | 1.11
U7C U8G G9U U10A U11A C12U | 1.33
U7C U8G G9U U10A U11A C12A | 1.25
U7C U8G G9C U10C U11C C12G C13U | 1.07
U7C U8G G9C U10C U11C C12G C13G | 1.08
U7C U8G G9C U10C U11C C12G C13A | 1.19
U7C U8G G9C U10C U11A C12U C13A | 1.08
U7C U8G G9C U10C U11A C12U C13U | 1.08
U7C U8G G9C U10C U11A C12U C13G | 1.21
U7C U8G G9U U10C C12G | 1.29
U7C U8G G9U U10C C12U | 1.4
U7C U8G G9U U10C C12A | 1.68
U7C U8G G9U U10A U11G C12G C13G | 1.18
U7C U8G G9U U10A U11G C12G C13U | 1.19
U7C U8G G9U U10A U11G C12G C13A | 1.05
U7C U8G G9C U10G U11G C12G C13G | 1.09
U7C U8G G9C U10G U11G C12G C13U | 1.15
U7C U8G G9C U10G U11G C12G C13A | 1.1
U7C U8G G9U U10C C12A C13U | 1.37
U7C U8G G9U U10C C12A C13G | 1.19
U7C U8G G9U U10C C12A C13A | 1.41
U7C U8G G9U U10C U11C C12G C13U | 1.04

Variant | aptazyme ON/OFF ratio
U7C U8G G9U U10C U11C C12G C13A | 1.13
U7C U8G G9U U10C U11C C12G C13G | 1.08
U7C U8G G9C U10G U11A C12U C13U | 1.27
U7C U8G G9C U10G U11A C12U C13A | 1.38
U7C U8G G9C U10G U11A C12U C13G | 1.27
U7C U8G G9U U10A C12G C13G | 1.18
U7C U8G G9U U10A C12G C13U | 1.21
U7C U8G G9U U10A C12G C13A | 1.13
U7C U8G G9U U10A U11C C12A | 1.14
U7C U8G G9U U10A U11C C12U | 1.04
U7C U8G G9U U10A U11C C12G | 1.2
U7C U8G G9U U10A U11G C12A C13U | 1.06
U7C U8G G9U U10A U11G C12A C13G | 1.14
U7C U8G G9U U10A U11G C12A C13A | 1.11
U7C U8G G9C U10C U11G C13A | 1.11
U7C U8G G9C U10C U11G C13G | 1.11
U7C U8G G9C U10C U11G C13U | 1.19
U7C U8G G9C U10C U11G C12A C13G | 1.06
U7C U8G G9C U10C U11G C12A C13A | 1.12
U7C U8G G9C U10C U11G C12A C13U | 1.05
U7C U8G G9C U11C C12G C13G | 1.08
U7C U8G G9C U11C C12G C13U | 1.27
U7C U8G G9C U11C C12G C13A | 1.4
U7C U8G G9U U10C U11C C12A C13A | 1.06

Variant | aptazyme ON/OFF ratio
U7C U8G G9U U10C U11C C12A C13G | 1.19
U7C U8G G9U U10C U11C C12A C13U | 1.18
U7C U8G G9U U10A U11C | 1.04
U7C U8G G9U U10A U11G | 1.22
U7C U8G G9U U10A U11A | 1.34
U7C U8G G9C U10G C12U C13G | 1.14
U7C U8G G9C U10G C12U C13U | 1.35
U7C U8G G9C U10G C12U C13A | 1.24
U7C U8G G9C U10C U11G C12U C13A | 1.07
U7C U8G G9C U10C U11G C12U C13U | 1.07
U7C U8G G9C U10C U11G C12U C13G | 1.09
U7C U8G G9C U10C C12G | 1.08
U7C U8G G9C U10C C12U | 1.27
U7C U8G G9C U10C C12A | 1.07
U7C U8G G9U U10A U11G C12U C13A | 1.11
U7C U8G G9U U10A U11G C12U C13G | 1.14
U7C U8G G9U U10A U11G C12U C13U | 1.14
U7C U8G G9C U11C C13U | 1.38
U7C U8G G9C U11C C13G | 1.05
U7C U8G G9C U11C C13A | 1.47
U7C U8G G9U U10C U11A C12G C13A | 1.14
U7C U8G G9U U10C U11A C12G C13U | 1.2
U7C U8G G9U U10C U11A C12G C13G | 1.21
U7C U8G G9C U10A U11G C12A C13G | 1.19

Variant | aptazyme ON/OFF ratio
U7C U8G G9C U10A U11G C12A C13U | 1.18
U7C U8G G9C U10A U11G C12A C13A | 1.08
U7C U8G G9C U10G C12A C13G | 1.09
U7C U8G G9C U10G C12A C13U | 1.26
U7C U8G G9C U10G C12A C13A | 1.16
U7C U8G G9C U10G U11C C12A C13G | 1.16
U7C U8G G9C U10G U11C C12A C13U | 1.35
U7C U8G G9C U10G U11C C12A C13A | 1.31
U7C U8G G9U C12G | 1.78
U7C U8G G9U C12A | 1.64
U7C U8G G9U C12U | 1.97
U7C U8G G9C U10C C12G C13A | 1.43
U7C U8G G9C U10C C12G C13G | 1.09
U7C U8G G9C U10C C12G C13U | 1.1
U7C U8G G9U U10C U11C C12U C13A | 1.05
U7C U8G G9U U10C U11C C12U C13G | 1.05
U7C U8G G9U U10A U11C C12U C13G | 1.11
U7C U8G G9U U10A U11C C12U C13A | 1.09
U7C U8G G9U U10A U11C C12U C13U | 1.06
U7C U8G G9C U10A U11G | 1.18
U7C U8G G9C U10A U11C | 1.03
U7C U8G G9U U10A U11A C12A C13U | 1.24
U7C U8G G9U U10A U11A C12A C13A | 1.16
U7C U8G G9U U10A U11A C12A C13G | 1.14

Variant | aptazyme ON/OFF ratio
U7C U8G G9U U10A U11C C12A C13A | 1.16
U7C U8G G9U U10A U11C C12A C13U | 1.13
U7C U8G G9U U10A U11C C12A C13G | 1.16
U7C U8G G9C U10C U11A C12A C13A | 1.08
U7C U8G G9C U10C U11A C12A C13G | 1.06
U7C U8G G9C U10C U11A C12A C13U | 1.09
U7C U8G G9U U10C U11A | 1.5
U7C U8G G9U U10C U11C | 1.06
U7C U8G G9C U11G C12U | 1.23
U7C U8G G9C U11G C12G | 1.19
U7C U8G G9C U11G C12A | 1.12
U7C U8G G9C U11A C12U C13A | 1.19
U7C U8G G9C U11A C12U C13G | 1.09
U7C U8G G9C U11A C12U C13U | 1.16
U7C U8G G9C U10G U11C C13A | 1.25
U7C U8G G9C U10G U11C C13G | 1.05
U7C U8G G9C U10G U11C C13U | 1.07
U7C U8G G9C U10C U11C C12G | 1.05
U7C U8G G9C U10C U11C C12A | 1.04
U7C U8G G9C U10C U11C C12U | 1.04
U7C U8G G9C U10G C13U | 1.47
U7C U8G G9C U10G C13G | 1.2
U7C U8G G9C U10G C13A | 1.25
